B1: Tyrosine-protein phosphatase non-receptor type 1 (Homo sapiens), P18031 (parent)
chain: MEMEKEFEQIDKSGSWAAIYQDIRHEASDFPCRVAKLPKNKNRNRYRDVSPFDHSRIKLHQEDNDYINASLIKMEEAQRSYILTQGPLPNTCGHFWEMVWEQKSRGVVMLNRVMEKGSLKCAQYWPQKEEKEMIFEDTNLKLTLISEDIKSYYTVRQLELENLTTQETREILHFHYTTWPDFGVPESPASFLNFLFKVRESGSLSPEHGPVVVHCSAGIGRSGTFCLADTCLLLMDKRKDPSSVDIKKVLLEMRKFRMGLIQTADQLRFSYLAVIEGAKFIMGDSSVQDQWKELSHEDLEPPPEHIPPPPRPPKRILEPHNGKCREFFPNHQWVKEETQEDKDCPIKEEKGSPLNAAPYGIESMSQDTEVRSRVVGGSLRGAQAASPAKGEPSLPEKDEDHALSYWKPFLVNMCVATVLTAGAYLCYRFLFNSNT
B2: Tyrosine-protein phosphatase non-receptor type 1 (Homo sapiens), P18031 (parent)
chain: B1 chain
partner: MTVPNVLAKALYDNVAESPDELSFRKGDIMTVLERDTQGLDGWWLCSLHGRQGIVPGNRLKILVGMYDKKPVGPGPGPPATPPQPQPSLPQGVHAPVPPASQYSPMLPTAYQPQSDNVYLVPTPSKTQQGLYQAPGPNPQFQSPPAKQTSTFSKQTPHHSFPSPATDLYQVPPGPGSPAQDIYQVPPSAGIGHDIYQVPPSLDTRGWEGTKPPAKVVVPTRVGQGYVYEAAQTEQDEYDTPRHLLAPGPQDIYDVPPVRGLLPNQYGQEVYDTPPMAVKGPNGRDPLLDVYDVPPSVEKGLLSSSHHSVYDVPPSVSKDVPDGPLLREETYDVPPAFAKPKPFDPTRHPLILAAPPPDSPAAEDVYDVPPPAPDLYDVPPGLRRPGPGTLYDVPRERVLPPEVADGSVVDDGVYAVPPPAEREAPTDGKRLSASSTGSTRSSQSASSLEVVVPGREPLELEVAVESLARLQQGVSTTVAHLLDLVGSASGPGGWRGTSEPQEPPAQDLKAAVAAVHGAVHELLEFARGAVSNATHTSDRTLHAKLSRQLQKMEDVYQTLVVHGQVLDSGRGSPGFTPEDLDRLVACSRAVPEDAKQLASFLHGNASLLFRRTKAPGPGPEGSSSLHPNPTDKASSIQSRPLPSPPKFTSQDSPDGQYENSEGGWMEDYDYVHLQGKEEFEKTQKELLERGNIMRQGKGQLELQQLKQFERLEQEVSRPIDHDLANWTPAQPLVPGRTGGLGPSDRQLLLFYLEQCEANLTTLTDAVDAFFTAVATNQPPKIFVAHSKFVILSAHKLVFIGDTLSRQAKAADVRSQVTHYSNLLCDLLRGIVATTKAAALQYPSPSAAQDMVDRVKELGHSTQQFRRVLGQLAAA

Variants of: B1
Details: with insr_rat Insr
With Y152F;Y153F the “effect of a mutation on the interaction” value was “disrupting interaction”.

Variants of: B1
Details: with src_rat Src
With P309A;P310A the “effect of a mutation on the interaction” value was “disrupting interaction”.

Variants of: B1
Details: with grb2_rat Grb2, P62994
grb2_rat Grb2, P62994, sequence (P62994 whole entry, looked up): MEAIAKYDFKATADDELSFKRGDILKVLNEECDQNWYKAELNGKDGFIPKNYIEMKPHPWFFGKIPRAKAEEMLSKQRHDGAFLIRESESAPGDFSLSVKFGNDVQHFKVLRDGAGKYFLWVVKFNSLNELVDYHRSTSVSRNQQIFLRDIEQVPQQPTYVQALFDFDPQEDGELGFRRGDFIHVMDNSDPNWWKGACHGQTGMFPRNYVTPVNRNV
P309A;P310A was tested, and the “effect of a mutation on the interaction” value was “disrupting interaction”.

Variants of: B1
Details: with crk_rat Crk
For P309A;P310A, the “effect of a mutation on the interaction” value was “disrupting interaction”.

Variants of: B2
Details: with bcar1_mouse Bcar1, Q61140
With P309A;P310A the “effect of a mutation on the interaction” value was “disrupting interaction”.

Source: IntAct's records for PubMed 12023880
